Test results as given in publication PMC4081071.

Columns and labels:
[1] = biological target: T1, GLD-1 KH-QUA2 P228S (Caenorhabditis elegans, UniProt Q17339 195-336, P228S); experiment: NMR HSQC titration
T1 sequence: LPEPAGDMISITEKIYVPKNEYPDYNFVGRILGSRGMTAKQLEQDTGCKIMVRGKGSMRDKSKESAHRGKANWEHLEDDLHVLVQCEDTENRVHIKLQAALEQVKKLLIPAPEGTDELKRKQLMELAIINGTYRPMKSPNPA

[2] = biological target: T2, GLD-1 KH-QUA2 (Caenorhabditis elegans, UniProt Q17339 195-336); experiment: ITC
T2 sequence: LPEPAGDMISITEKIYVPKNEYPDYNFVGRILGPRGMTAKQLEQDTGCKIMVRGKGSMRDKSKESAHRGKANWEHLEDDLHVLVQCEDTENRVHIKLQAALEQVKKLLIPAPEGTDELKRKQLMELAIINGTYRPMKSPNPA

[3] = biological target: T3, GLD-1 KH-QUA2 P228A (Caenorhabditis elegans, UniProt Q17339 195-336, P228A); experiment: ITC
T3 sequence: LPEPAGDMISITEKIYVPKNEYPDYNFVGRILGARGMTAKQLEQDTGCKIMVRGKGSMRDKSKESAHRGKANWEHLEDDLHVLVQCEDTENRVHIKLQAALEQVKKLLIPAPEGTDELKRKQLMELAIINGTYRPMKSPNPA

[4] = biological target: T2, GLD-1 KH-QUA2; experiment: NMR HSQC titration

## CUACUCAUAU (ssRNA) [tra-2 TGE strong site]
[1]
  binding result: binds
[2]
  Kd: 61 ± 3 nM
[3]
  binding signal: 19 fold decrease in affinity vs wild type

## AUUUAAUUU (ssRNA) [tra-2 TGE weak site]
[4]
  binding result: binds
